Experimental findings from patent publication US20240254222A1 (Bayer, published 2024) are described below.

T1: Mouse Semaphorin3A-Sema Domain, TPP-19069 (mouse, UniProt O08665 21-569)
T1 construct: produced inhouse
T1 sequence: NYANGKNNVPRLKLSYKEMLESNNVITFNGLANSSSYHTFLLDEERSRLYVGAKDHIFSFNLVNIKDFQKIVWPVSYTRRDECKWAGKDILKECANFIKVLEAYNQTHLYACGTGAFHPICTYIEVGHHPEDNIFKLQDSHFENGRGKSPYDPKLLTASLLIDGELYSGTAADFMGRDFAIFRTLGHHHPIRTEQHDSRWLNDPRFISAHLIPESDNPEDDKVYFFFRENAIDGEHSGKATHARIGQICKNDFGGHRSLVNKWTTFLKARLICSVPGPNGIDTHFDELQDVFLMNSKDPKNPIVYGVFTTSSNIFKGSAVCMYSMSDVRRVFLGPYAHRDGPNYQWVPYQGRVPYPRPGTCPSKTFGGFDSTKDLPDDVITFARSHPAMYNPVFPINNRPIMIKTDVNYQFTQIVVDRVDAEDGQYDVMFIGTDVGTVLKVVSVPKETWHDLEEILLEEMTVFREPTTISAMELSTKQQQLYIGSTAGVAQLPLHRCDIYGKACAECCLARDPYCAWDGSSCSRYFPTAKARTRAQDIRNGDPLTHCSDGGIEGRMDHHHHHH

T2: Dog Semaphorin3A-Sema Domain, TPP-19121 (dog, UniProt Q63548 21-569 (rat entry), limits assumed)
T2 construct: produced inhouse
T2 chain: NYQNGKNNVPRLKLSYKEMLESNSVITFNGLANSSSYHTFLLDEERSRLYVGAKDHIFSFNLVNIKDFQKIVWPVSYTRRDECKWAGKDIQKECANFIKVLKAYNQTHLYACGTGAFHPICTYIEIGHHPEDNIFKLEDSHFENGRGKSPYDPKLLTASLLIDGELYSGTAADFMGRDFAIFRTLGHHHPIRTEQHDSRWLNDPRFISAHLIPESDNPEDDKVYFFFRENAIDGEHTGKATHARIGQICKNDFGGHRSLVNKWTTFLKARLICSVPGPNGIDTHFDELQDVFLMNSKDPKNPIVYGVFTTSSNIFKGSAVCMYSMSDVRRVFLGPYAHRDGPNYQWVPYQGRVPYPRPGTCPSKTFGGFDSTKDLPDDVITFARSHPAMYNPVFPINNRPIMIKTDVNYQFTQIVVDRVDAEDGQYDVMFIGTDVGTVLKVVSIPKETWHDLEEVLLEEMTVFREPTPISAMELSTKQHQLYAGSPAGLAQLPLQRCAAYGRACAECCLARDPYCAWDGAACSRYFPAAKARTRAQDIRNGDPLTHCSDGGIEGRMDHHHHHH

T3: Rat Semaphorin3A-Sema Domain, TPP-19120 (rat, UniProt Q63548 21-569)
T3 construct: produced inhouse
T3 sequence: T1 sequence with E102K, I455V

B1: TPP-17755 (antibody, human IgG1, lambda, V domains shown)
VH: EVQLLESGGGLVQTGGSLRLSCAASGFTFSDYAMSWVRQAPGKGLEWVSWIYYDSGSKYYADSVKGRFTISRDNSKNTLYLQMNSLRAEDTAVYYCAKLNGDFDYWGQGTLVTVSS
VL: QSVLTQPPSASGTPGQRVTISCSGSSSNIGNNDVSWYQQLPGTAPKLLIYADSHRPSGVPDRFSGSKSGTSASLAISGLRSEDEADYYCGAWDSSLSGYVFGGGTKLTVLG
notes: also called Samsung; Samsung Prior Art F11
B2: TPP-11489 (antibody, human IgG1, lambda)
heavy: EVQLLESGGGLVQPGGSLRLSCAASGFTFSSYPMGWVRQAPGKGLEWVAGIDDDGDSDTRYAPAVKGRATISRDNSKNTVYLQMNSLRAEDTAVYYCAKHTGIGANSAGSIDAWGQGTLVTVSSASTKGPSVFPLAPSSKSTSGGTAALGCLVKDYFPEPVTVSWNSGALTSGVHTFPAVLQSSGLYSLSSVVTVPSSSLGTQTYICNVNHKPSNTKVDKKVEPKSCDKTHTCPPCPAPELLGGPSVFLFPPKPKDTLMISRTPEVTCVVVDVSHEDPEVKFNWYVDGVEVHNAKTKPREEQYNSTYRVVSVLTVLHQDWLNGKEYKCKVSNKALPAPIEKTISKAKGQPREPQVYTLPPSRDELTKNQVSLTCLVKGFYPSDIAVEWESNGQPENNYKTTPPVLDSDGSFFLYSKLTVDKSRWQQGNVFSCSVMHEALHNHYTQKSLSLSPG
light: SYELTQPPSVSVSPGQTARITCSGGGSYTGSYYYGWYQQKPGQAPVTVIYYNNKRPSDIPERFSGSLSGTTNTLTISGVQAEDEADYYCGSADNSGDAFGTGTKVTVLGQPKAAPSVTLFPPSSEELQANKATLVCLISDFYPGAVTVAWKADSSPVKAGVETTTPSKQSNNKYAASSYLSLTPEQWKSHRSYSCQVTHEGSTVEKTVAPTECS
notes: human IgG1; also called Chiome; Chiome Prior Art (hIgG1)
B3: TPP-30792 (antibody, human IgG1, lambda, V domains shown)
V domain 1: EVQLLESGGGLVQPGGSLRLSCAASGFTFRSYAVHWVRQAPGKGLEWVSSTEGSGVGTSYTDSVKGRFTISRDNSKNTLYLQMNSLRAEDTAVYYCARMLGGGNPLDYLDYWGQGTLVTVSS
V domain 2: QSVLTQPPSASGTPGQRVTISCSGSSSNLGEGYDVHWYQQLPGKAPKLLIYYSDFRPSGVSDRFSGSKSGTSASLAISGLQSEDEADYYCAAWDDSLSSQVFGGGTQVTVLG
notes: IgG1; prior art, WO 2020/261281; also called 3H4 Univ Ramot; 3H4 (Ramot) Clon I
B4: TPP-15374 (antibody, human IgG1, lambda, V domains shown)
VH: EVQLLESGGGLVQPGGSLRLSCAASGFTFSSYEMNWVRQAPGKGLEWVSGISWNSGSIGYADSVKGRFTISRDNSKNTLYLQMNSLRAEDTAVYYCARSGYSSSWFDPDFDYWGQGTLVTVSS
VL: QSVLTQPPSASGTPGQRVTISCTGSSSNIGAGYDVHWYQQLPGTAPKLLIYGNSNRPSGVPDRFSGSKSGTSASLAISGLRSEDEADYYCSSYAGSNPYVVFGGGTKLTVLG
notes: human IgG1; also called IgG1, hit from panning; parental mAb
B5: TPP-30788 (antibody, human IgG1, kappa, V domains shown)
VH: EVQLVESGGGLVQPGGSLRLSCAASGFTFSSYYMSWVRQAPGKGLEWVSTIIKSGGYAYYPDSVKDRFTISRDNSKNTLYLQMSSLRAEDTAVYYCVRGGQGAMDYWGQGTTVTVSS
VL: EIVLTQSPATLSLSPGERATLSCRASQSIGDYLHWYQQKPGQAPRLLIKYASQSISGIPARFSGSGSGTDFTLTITSLEPEDFAVYYCQQGYSFPYTFGGGTKLEIKR
notes: prior art, WO 2020/225400; also called BI clone I; Böhringer (BI) Clone I
B6: TPP-30791 (antibody, human IgG1, kappa, V domains shown)
VH: B5 VH with V12L, P14L, Y80N, S84N, R98K
VL: B5 VL with T76S
notes: prior art, WO 2020/225400; also called BI clone IV; Böhringer (BI) Clone IV
B7: TPP-30789 (antibody, human IgG1, kappa, V domains shown)
VH: B5 VH with T28P
VL: B5 VL
notes: prior art, WO 2020/225400; also called BI clone II; Böhringer (BI) Clone II
B8: TPP-30790 (antibody, human IgG1, kappa, V domains shown)
VH: B5 VH with P14L, S84N, R98K
VL: B5 VL with K49Y, T76S
notes: prior art, WO 2020/225400; also called BI clone III; Böhringer (BI) Clone III
B9: TPP-23337 (antibody, human IgG4 S228P, lambda, V domains shown)
VH: EVQLLESGGGLVQPGGSLRLSCAASGFTFSSYAMSWVRQAPGKGLEWVSAIGYGGDTYYADSVKGRFTISRDNSKNTLYLQMNSLRAEDTAVYYCARRDDYTSRDAFDYWGQGTLVTVSS
VL: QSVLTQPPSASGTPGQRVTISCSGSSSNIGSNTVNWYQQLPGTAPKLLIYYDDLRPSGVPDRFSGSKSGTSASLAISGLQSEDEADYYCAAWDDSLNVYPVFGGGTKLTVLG
B10: TPP-15370 (antibody, human IgG1, lambda, V domains shown)
VH: B9 VH with A33G, S35H, Y53T, K64M, Y109V
VL: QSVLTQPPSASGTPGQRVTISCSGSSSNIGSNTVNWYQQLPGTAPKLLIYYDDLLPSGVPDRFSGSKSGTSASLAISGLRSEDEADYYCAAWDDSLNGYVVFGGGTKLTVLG
notes: as for B4
B11: TPP-23374 (antibody, human IgG4 S228P, lambda, V domains shown)
VH: B9 VH with S30Y
VL: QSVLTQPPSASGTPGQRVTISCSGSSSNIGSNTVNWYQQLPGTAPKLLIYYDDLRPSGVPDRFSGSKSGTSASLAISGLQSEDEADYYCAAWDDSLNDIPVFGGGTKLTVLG
B12: TPP-23347 (antibody, human IgG4 S228P, lambda, V domains shown)
VH: B9 VH with S30Y, S35L, Y53T
VL: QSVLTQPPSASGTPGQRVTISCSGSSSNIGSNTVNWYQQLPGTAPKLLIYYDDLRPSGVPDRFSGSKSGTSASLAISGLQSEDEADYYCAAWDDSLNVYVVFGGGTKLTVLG
B13: TPP-23341 (antibody, human IgG4 S228P, lambda, V domains shown)
VH: B9 VH
VL: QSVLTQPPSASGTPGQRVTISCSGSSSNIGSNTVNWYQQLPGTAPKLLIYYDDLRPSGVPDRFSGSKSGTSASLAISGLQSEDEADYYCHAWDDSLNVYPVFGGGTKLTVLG
B14: TPP-23375 (antibody, human IgG4 S228P, lambda, V domains shown)
VH: B9 VH with S30Y
VL: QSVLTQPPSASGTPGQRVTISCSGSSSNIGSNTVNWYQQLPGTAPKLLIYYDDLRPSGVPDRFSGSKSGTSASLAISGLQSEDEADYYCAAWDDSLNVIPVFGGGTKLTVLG
B15: TPP-23298 (antibody, human IgG4 S228P, lambda, V domains shown)
VH: B9 VH with S30Y, Y53T
VL: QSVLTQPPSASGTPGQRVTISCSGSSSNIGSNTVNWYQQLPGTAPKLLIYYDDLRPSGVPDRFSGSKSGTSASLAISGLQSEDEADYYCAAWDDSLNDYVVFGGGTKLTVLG
B16: TPP-23346 (antibody, human IgG4 S228P, lambda, V domains shown)
VH: B9 VH with S30Y, S35L, Y53T
VL: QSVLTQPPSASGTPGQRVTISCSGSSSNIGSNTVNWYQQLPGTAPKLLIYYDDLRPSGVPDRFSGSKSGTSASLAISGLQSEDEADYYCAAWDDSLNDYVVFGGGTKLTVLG
B17: TPP-23334 (antibody, human IgG4 S228P, lambda, V domains shown)
VH: B9 VH
VL: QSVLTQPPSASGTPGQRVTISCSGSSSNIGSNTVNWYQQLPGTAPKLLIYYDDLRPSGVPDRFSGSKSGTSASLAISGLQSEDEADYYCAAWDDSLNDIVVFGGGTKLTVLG
B18: TPP-23345 (antibody, human IgG4 S228P, lambda, V domains shown)
VH: B9 VH
VL: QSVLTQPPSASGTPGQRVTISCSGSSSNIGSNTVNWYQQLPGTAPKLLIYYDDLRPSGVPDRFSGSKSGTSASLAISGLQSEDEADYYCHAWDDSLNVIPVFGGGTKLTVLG
B19: TPP-23373 (antibody, human IgG4 S228P, lambda, V domains shown)
VH: B9 VH with S30Y
VL: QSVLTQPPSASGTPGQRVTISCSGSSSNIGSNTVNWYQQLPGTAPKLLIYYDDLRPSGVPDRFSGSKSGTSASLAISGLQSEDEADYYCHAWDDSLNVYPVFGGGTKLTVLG
B20: TPP-23338 (antibody, human IgG4 S228P, lambda, V domains shown)
VH: B9 VH
VL: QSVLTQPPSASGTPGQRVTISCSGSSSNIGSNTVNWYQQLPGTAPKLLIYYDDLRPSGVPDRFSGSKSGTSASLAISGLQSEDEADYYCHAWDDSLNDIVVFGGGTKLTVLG
B21: TPP-23340 (antibody, human IgG4 S228P, lambda, V domains shown)
VH: B9 VH
VL: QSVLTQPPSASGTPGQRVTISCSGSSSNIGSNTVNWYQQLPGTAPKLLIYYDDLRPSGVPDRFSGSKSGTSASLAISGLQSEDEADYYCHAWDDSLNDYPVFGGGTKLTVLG

Where a chain is given by its changes, count along the chain named.

Usually Kd stands for a measure of binding affinity in units of concentration. The low end stands for a tighter complex, the high end for a looser complex.

The target of one test is T1, Mouse Semaphorin3A-Sema Domain, …. Put plainly: SPR, captured antibody, Sema3A domain analyte. Put shortly: (§1)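 SPR on Biacore T200/8K+ at 25° C in HBS P+ with 300 mM NaCl, 0.75 mM CaCl₂, 2.5 mM MgCl₂, 1 mg/ml BSA; antibodies captured by anti-human Fc, or anti-human Fab for Fc-tagged analytes. Fc-Sema3A at 1.56-200 nM; monovalent Sema domains at […]-3.125 nM multi-cycle or 100 nM binding only. Double-referenced 1:1 Langmuir fit.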
(SPR reads the build-up and loss of mass on a sensor chip optically.)
Molecule B1 registered a Kd of 3.9 nM. That is a single-digit nanomolar value.

The molecule B2 registered an equilibrium dissociation constant (Kd) of 160 nM.

In the case of B3, the binding result is given as “no binding”.

Take B4: the Kd was 8.3 nM.

For B5, the affinity, expressed as Kd, was 0.043 nM.

The molecule B6 displayed a Kd of 0.028 nM.

B7 displayed a Kd of 0.042 nM.

In turn, B8 came in with a Kd of 0.04 nM.

Regarding B9, the affinity, expressed as Kd, was 0.05 nM.

Take B10: binding was characterised by a dissociation constant (Kd) of 7.2 nM. Compared with the last molecule, the Kd is about 140-fold higher.

As for B11, the dissociation constant (Kd) amounted to 0.016 nM.

With B12, the equilibrium dissociation constant (Kd) is 0.055 nM. Compared with the last molecule, the Kd is about 3.4-fold higher.

Take B13: the Kd is 0.092 nM.

In the case of B14, the dissociation constant (Kd) came to 0.042 nM.

The molecule B15 had a Kd of 0.074 nM.

Molecule B16 had an equilibrium dissociation constant (Kd) of 0.064 nM. The Kd values of the last two molecules are within 1.5-fold of each other.

B17 showed an equilibrium dissociation constant (Kd) of 0.062 nM.

B18 yielded a Kd of 0.063 nM.

On to B19, for which binding was put at a Kd of 0.083 nM.

Turning to B20, the dissociation constant (Kd) was 0.045 nM.

B21 displayed a Kd of 0.059 nM.

A further test concerns the target T2, Dog Semaphorin3A-Sema Domain, TPP-19121. Put plainly: SPR, captured antibody, Sema3A domain analyte. Put shortly: as §1
B1 came in with an equilibrium dissociation constant (Kd) of 7.5 nM.

Take B2: the Kd stood at 50 nM.

For B3, the binding result was “no binding”.

Molecule B4 came in with a Kd of 19 nM.

As to B5, binding was put at a Kd of 0.11 nM.

As to B6, the Kd is 0.078 nM.

B7: the Kd amounted to 0.11 nM.

In turn, B8 yielded a Kd of 0.1 nM.

B9 displayed a Kd of 0.0045 nM.

With B10, the Kd was determined as 22 nM.

For B11, the dissociation constant (Kd) stood at 0.0073 nM.

Consider B12, for which binding was characterised by a dissociation constant (Kd) of 0.051 nM. Against the preceding molecule, the Kd is about 7-fold higher.

The molecule B13 yielded a Kd of 0.084 nM.

In turn, B14 came in with a dissociation constant Kd of 0.045 nM. This Kd is about 1.9-fold lower than that of the molecule before.

B15: binding was characterised by a dissociation constant (Kd) of 0.07 nM. This Kd lies about 1.6-fold higher than the previous one.

B16: the Kd came out at 0.061 nM.

For the molecule B17, the Kd is 0.0084 nM.

Turning to B18, the Kd came out at 0.046 nM.

Turning to B19, the dissociation constant (Kd) worked out at 0.1 nM.

Molecule B20 registered a Kd of 0.053 nM.

Regarding B21, the Kd was found to be 0.058 nM.

For a further test, the target named is T3, Rat Semaphorin3A-Sema Domain, TPP-19120. Put plainly: SPR, captured antibody, Sema3A domain analyte. Put shortly:
as §1
As to B1, the Kd worked out at 5.4 nM. This counts as single-digit nanomolar.

For the molecule B2, the equilibrium dissociation constant (Kd) was found to be 33 nM.

With B3, the binding result was “no binding”.

B4 displayed a Kd of 9.8 nM.

With B5, binding was characterised by a dissociation constant (Kd) of 0.026 nM.

B6 returned a Kd of 0.017 nM.

B7 returned a dissociation constant Kd of 0.026 nM.

B8: the equilibrium dissociation constant (Kd) came out at 0.022 nM.

In turn, B9 had a dissociation constant (Kd) of 0.11 nM.

The molecule B10 returned a dissociation constant Kd of 14 nM.

In turn, B11 had a dissociation constant Kd of 0.0033 nM.

Consider B15, for which binding was characterised by a dissociation constant (Kd) of 0.03 nM. This Kd is about 9.1-fold higher than that of the molecule before.

On to B17, for which the Kd is 0.056 nM.
